Assay results as given in the nanobody polyreactivity screen of Harvey et al. (2022).

Assay: yeast display, Sf9 membrane polyspecificity reagent, FACS + sequencing; frameworks hold sequencing errors
Procedure, shortened: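 Polyreactivity labels are assigned by the sorting gate from which each nanobody was recovered. The gates were low and high (top ~1%), set on anti-HA fluorescence for expression and streptavidin fluorescence for reagent binding. Before sorting, galactose-induced (36–48 hours) yeast display cells were stained for 1 hour at 4 °C with 10% biotinylated, detergent-solubilized Sf9 membrane reagent.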

Sequence | polyreactivity (PSR sort gate)
QVQLVESGGGLVQAGGSLRLSCAASGRNFPRNVMGWYRQAPGKERELVAAITGSGSSTYYADSVKGRFTISRDIEKNTVYLQMNSLQPEDTAVYYCATIWRFKLGDYWGQGTQVTVSS | high polyreactivity
QVQLVESGGGLVQAGGSLRLSCAASGRNFPVYAMGCYRQAPGKERELVAAMTRSDDSTYYADSVKGRFTISRDNAKNTVYLQMNSLKPEDTAVYYCAADVEGWTVESDVYRVGYDFWGQGTQVTVSS | low polyreactivity
QVQLVESGGGLVQAGGSLRLSCAASGRNFPYYAMGWSRQAPGKERELVADISSSGGRTYYADSVKGRFTTSRDNAKNTVYLQMNSLKPEDTAVYYCNAESTYYPSGEDYWGQGTQVTVSS | low polyreactivity
QVQLVESGGGLVQAGGSLRLSCAASGRNFRVYAMGWYRQAPGKESELVAAITSGGTTYADSVKGRFTISRDNAKNTGYLQMNSLQPEDTAVYYCAARYYIHRGYDYDYWGQGTQVTVSS | high polyreactivity
QVQLVESGGGLVQAGGSLRLSCAASGRNFSGNTMGWYRQAPGKERELVAAITGRGGSTYYADSVKGRFTISRDNAKNTVYLQMNSLKPEDNAVYYCAALRYTFAGRFDYWGQGTQVTVSS | high polyreactivity
QVQLVESGGGLVQAGGSLRLSCAASGRNFYLYAMGWYRPAPGKERELVAAITRRGGSTYYADSVKGRFTISRDNAKNTVYLQMNSLKPEDTAVYYCAADRPGTGYSDYDYWGQGTQVTVSS | high polyreactivity
QVQLVESGGGLVQAGGSLRLSCAASGRNFYSYSMGWYRQEPGKERELVATITSNDGGTDYADSVKGRFTISRDNAKNTVYLQMNSLKPEDTAVYYCNAEDVLPEVGNRYNYWGQGTQVTVSS | low polyreactivity
QVQLVESGGGLVQAGGSLRLSCAASGRNFYYYAMGWYRQAPGKERELVATITGGGRTYYADSVKGRFTISRDNAKNTVYLQMHSLHPEDTAVYYCAAQYGGLSYRYDYWGQGTQVTVSS | high polyreactivity
QVQLVESGGGLVQAGGSLRLSCAASGRPFASYALGWYREAPGKERELVAVITRGVRTYYADSVKGRFTISRDNAKNTVYLQMNSLKPEDTAVYSCAKERYNANYDTSLYDYWGQGTQVTVSS | low polyreactivity
QVQLVESGGGLVQAGGSLRLSCAASGRPFGGNTMGWYRQAPGKERALVAAISFSGGSTYYADSVKGRFSSSRDNAKNTVYFQMNSLKPEDTAVYYCARDDYSHSFLTYDYWGQGTQVTVSS | low polyreactivity
QVQLVESGGGLVQAGGSLRLSCAASGRPFGRYAMGWYRPAPGKERELVAAITGSGGSTYYADSVKGRYTMSRDNAKNTVYLQMNSLKPEDTAVYYCAAPQRYYYTAMGYWGQGTQVTVSS | high polyreactivity
QVQLVESGGGLVQAGGSLRLSCAASGRPFRLNGMGWYRQAPGKERELVAAITWSGGRTYYADSVKGRFTISRDNAKTTVYLQMNSLKPEDTAVYDCAADYRYKSHWWYRRFDYWGQGTQVTVSS | high polyreactivity
QVQLVESGGGLVQAGGSLRLSCAASGRSFDVNAMGWYRQAPGKERELVAAISTRGGGTYYADSVKGRFTISRDNAKTTVYLQMNSLKPEDTAVYYCNVVRRYGGRGFDYWGQGTQVTVSS | low polyreactivity
QVQLVESGGGLVQAGGSLRLSCAASGRSFDWDVLGWYSQVPGKERELVAAIDDSGGSTYYADSVKGRFTISRDNAKNTVYLQMNSLKPEDTAVYYCAAASYEYALDEHMDYWGQGTQVTGSS | low polyreactivity
QVQLVESGGGLVQAGGSLRLSCAASGRSFKKYAMGWYRQAPGKERELVAAITASGGSTYYADSVKGRYTISRDNAKNTVYLQMNSLTPEDTAVYYCAAYAYGVWHSQDGGNYWGQGTQVTVSS | low polyreactivity
QVQLVESGGGLVQAGGSLRLSCAASGRSFSPYAMGWYRQAPGKERELVAAISYDDGITYYADSVKGRFTISRDTAKNTVYLQMNSLKPEDTAVYYCAADSVTRPAGDYWGQGTQVTVSS | low polyreactivity
QVQLVESGGGLVQAGGSLRLSCAASGRSFSYNAMGWYRQAPGKERELVAAISYGGGRTYYADSVKGRFTISRDNAKNTVYLQMNSLKPEDTAVYYCNRYGRQYDFYYWGQGTQVSVSS | high polyreactivity
QVQLVESGGGLVQAGGSLRLSCAASGRSFTGNAMGWYRQAPGKERELVAAISWRGARTYYADSVKGRFTISRDNAKNTVYFQMNSLKPVDTGVYYCAAAYRGYARHDYWGQGTQVTVSS | high polyreactivity
QVQLVESGGGLVQAGGSLRLSCAASGRSFTGYAMGWYRQATGKERELVASISDSGASTYYADSVKGRFTISRDNAKNTVYLLMNSLKPEDTAVFYCAASYPSYNWSVGDDDYWGQGTQVTVSS | low polyreactivity
QVQLVESGGGLVQAGGSLRLSCAASGRSFYLYAMGWYRQAPGKERELVASISWNGGSTYYADSVKGRFTISRDNAKNTVYLQMNSLKPEDTAVYYCATDSHRSRLNRPYQLFPAYYYWGQGTQVTVSS | low polyreactivity
QVQLVESGGGLVQAGGSLRLSCAASGRSFYRYVMGWYRQAPGTERELVAAMTWSGGSTYYADSVKGRFTISRDNAKNTVYLQMNSLKPEDTAVYYCAADWSTWGVDYWGQGTQVTVSS | low polyreactivity
QVQLVESGGGLVQAGGSLRLSCAASGRSIKYYAMGWYRQAPGKERELVAAIRSTGGSTYYADSVKGRFTISRDNAKNTVYLQMNSLKPEDTAVYYCNARRYPRYVFSRYVYWGQGTQVNVSS | high polyreactivity

Sequence | polyreactivity (PSR sort gate)
QVQLVESGGGLVQAGGSLRLSCAASGRTCGGYAMGWYRQEPGNERELVAAISYRGARTYYADSVKGRFTISRDNAKNTVYLQMNSRKPEDTAVYYCAASRPGLRTPGQMGYWGQGTQVTVSS | high polyreactivity
QVQLVESGGGLVQAGGSLRLSCAASGRTCRRYTIGWYRQAPGKERELVAAITSGGRTNYADSVKGRFTISRDNAKNTVYLQMNSLKPEDTAVYYCNAQNEIWRVTFSPYDRWGYDYWGQGTQVTVSS | low polyreactivity
QVQLVESGGGLVQAGGSLRLSCAASGRTFAANTMGWYRQAPGKERELVAAINSGGSTYYADSVKGRFTISRDNAKNTVYLHMNSLKPEATAVYYCAVSWWEVPRIFGYSSRYDYWGQGTQVTVSS | high polyreactivity
QVQLVESGGGLVQAGGSLRLSCAASGRTFAAYAMGWYIQSPGKERELVAAISSTSGNTYYADSVKGRFTISRDNAKNTVYLQMNSLKPEDTAVYYCNAQRRFNANYWYDYWGQGTQVTVSS | high polyreactivity
QVQLVESGGGLVQAGGSLRLSCAASGRTFAAYAMGWYRQAPGKEREFVADITYSGGSTTYADSVKGRFTISRDNAKNTVYLLMNSLNPEDTAVYYCNKLAYTPGWRGFVWYDYWGQGTQVSVSS | low polyreactivity
QVQLVESGGGLVQAGGSLRLSCAASGRTFAFNAMGRYRQAPGKEMELVAAISRSGGSTYYADSVKGRFTISRDNAKNTVYLQMNSLKPEDTAVYYCNAYYNRYPGYDYWGQGTQVTVSS | high polyreactivity
QVQLVESGGGLVQAGGSLRLSCAASGRTFAFNAMGWYRQAPGKERELVATISWSGGSTYYADSVKGRFTISRDNAKNTVYLQMNSLKPEDTAVYYCAKVVRGSNDYDYWGQGTQVTVSS | high polyreactivity
QVQLVESGGGLVQAGGSLRLSCAASGRTFAFYAMGWYRQAPGKERELVASISSSGDRTYYADSVKGRFTISRVNAKNTVYLQMNSLKPEDTAVYYCAARWRYTYYYWGQGTQVTVSS | high polyreactivity
QVQLVESGGGLVQAGGSLRLSCAASGRTFAGNAMGWYRQAPGKEREFVASITASGVNTYYADSVKGRFTISRDNAKNTVYLQMNSLKPEDTAVYYCNKRNRWTPFYTYDYWGQGTQVTVSS | low polyreactivity
QVQLVESGGGLVQAGGSLRLSCAASGRTFAGYAMGWYRQAPGKERELVAAISGSGGRTYYADSVKGRFTISRDNAKNTVYLQMNSLKPEDTAVYYCAASQRVYIARSDYWGQGTQATVSS | high polyreactivity
QVQLVESGGGLVQAGGSLRLSCAASGRTFAGYAMGWYRQAPGKERELVAGIRRSGDSTYYADSVKGRFTISRDNAKNTVYLQMNSLKPEDTAVYYCAAAPISKYGPYRGTGYRMGYWGQGTQVTVSS | high polyreactivity
QVQLVESGGGLVQAGGSLRLSCAASGRTFAGYTMGWYRQAPGKERELVAAITKSGGSTYYADSVKGRFTISRDNEKNTVYLQMNSLKPEDTAVYYCAARYIPSRYGTGCGYYSWGQGTQVTVSS | high polyreactivity
QVQLVESGGGLVQAGGSLRLSCAASGRTFAHNAMGWYRQAPGKERELVAAITWSGGTTYYADSVKGRFTISRDNAKNTVYLHMNSLKPEDTAVYYCNTYSYQPDPKYDYWGQGTQVTVSS | low polyreactivity
QVQLVESGGGLVQAGGSLRLSCAASGRTFAHNAMGWYRQAPGKERELVAAITWSGGTTYYADSVKGRFTISRDNAKNTVYLQMNSLKPEDTAVYYCNTYSYQPDPKYDYWGQGTQVTVSS | low polyreactivity
QVQLVESGGGLVQAGGSLRLSCAASGRTFAIYAMGWYRQAPGKERELVAAIRKRGSITYYADSVKGRFTISRDNAKNTVYLQMNSLKPEDTAVYYCAVDYWGQGTQVTVSS | high polyreactivity
QVQLVESGGGLVQAGGSLRLSCAASGRTFAIYTRGWYRQAPGKERELVASITSSGASTYYADSVKGRFTISRDNAKNTVYLQMNSLKPEYTAVYYCAAGWYQGFDYWGQGTQVTVSS | high polyreactivity
QVQLVESGGGLVQAGGSLRLSCAASGRTFAKYAMGWYRQAPGKEREWVAAINSSGGSTYYADSVKGRFTISRDNAKNTVYLQMNSLKPEDTAVYYCAKEYYSYDVYLGVSYVGRYDYWGQGTQVTVSS | low polyreactivity
QVQLVESGGGLVQAGGSLRLSCAASGRTFANYAMGWYRQAPGKERELVAAISSGGNTYYADSVKGRFTISRDNAKNTVYLQMNSLKPEDTAVYYCNAPWYYRYQRNEYGYWGQGTQVTVSS | high polyreactivity
QVQLVESGGGLVQAGGSLRLSCAASGRTFAQNAMGWYRQAPGKERELVAAISSGGGRTYYADSVKGRFTISRDNAKNTVFLQMNSLKREDTAVYYCAAQGWLSYRYSPLKFGYWGQGTQVTVSS | high polyreactivity
QVQLVESGGGLVQAGGSLRLSCAASGRTFAQYTMGWYRQAPGKERELVAGIDWSGGNTYYADSVKGRFTISRDNAKNTVYLQMNSLKPEDTAVYYCAAVPAFYNAWGEDYEYWGQGTQVTVSS | low polyreactivity
QVQLVESGGGLVQAGGSLRLSCAASGRTFARNAMGWYRPAPGKERELVAAIPRSGGSTYYADSVKGRFTISRDNAKNTVYLQMNSLKPEDTADYYCAAVGTGSSLRYDYWGQGTQVTVSS | high polyreactivity
